Assay results reported in article PMC4239642, “trans-Acting Arginine Residues in the AAA+ Chaperone ClpB Allosterically Regulate the Activity through Inter- and Intradomain Communication” (The Journal of Biological Chemistry, 2014).

Key:
[1] = biological target: cross-linked NBD1-M dimer with Walker B mutation E271Q in the cross-linked interface (Thermus thermophilus) (UniProt Q9RA63); assay: SEC-MALS; Superdex 200 10/300 GL with multiangle static light scattering (SLS), buffer A (50 mM Tris/HCl pH 7.5, 50 mM KCl, 5 mM MgCl2, 2 mM EDTA); running buffer nucleotide-free or with 2 mM ADP or 2 mM ATP; 40 μl of 100 μM injected, about 2 μM at the detector; self-association induced by nucleotide; settings: scale: NBD1-M subunits
[2] = biological target: cross-linked NBD1-M dimer with Walker B mutation E271Q in the free interface (Thermus thermophilus) (UniProt Q9RA63); assay: as above; settings: scale: NBD1-M subunits

Substance	stoichiometry N [1]	stoichiometry N [2]
cross-linked NBD1-M dimer with Walker B mutation E271Q in the cross-linked interface (from UniProt Q9RA63 141-534; Q9RA63 141-534) (complex)	4	
cross-linked NBD1-M dimer with Walker B mutation E271Q in the free interface (from UniProt Q9RA63 141-534; Q9RA63 141-534) (complex)		4
